Reference: the nanobody polyreactivity screen of Harvey et al. (2022)

Assay: yeast display, Sf9 membrane polyspecificity reagent, FACS + sequencing; frameworks hold sequencing errors
Outline: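 Genes from sorted yeast were amplified by colony PCR, read by MiSeq 2 × 250 sequencing and filtered on CDR length. These cells carried a synthetic nanobody library in Saccharomyces cerevisiae BJ5465 and were sorted by FACS into low and high (top ~1%) gates on anti-HA and streptavidin fluorescence. Polyreactivity is labelled according to the gate of origin.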

| Sequence | polyreactivity (PSR sort gate) |
| --- | --- |
| QVQLVESGGGLVQAGGSLRLSCAASGITFFLYAMGWYRQAPGKERELVAVISASGGSTYYADSVKGRFTISRDNAKNTVYLQMNSLKPDDTAVYYCNAYGAFIGYDSWGQGTQVTVSS | high polyreactivity |
| QVQLVESGGGLVQAGGSLRLSCAASGLTFYYYVMGWYRQAPGKERELVAAINATGGRTYYADSVKGRFTISRDNAKNTVYLQMNSLKPEDTAVYYCAAYSGFYASYDYWGQGTLVTVSS | low polyreactivity |
| QVQLVESVGGLVQAGGSLRLSCAASGSIFNYYAMGWYRQAPGKERELVAAITTSGGNTYYADSVKGRFTISRDNPKNTVYLQMNSLKPEDTAVYYCAADYWASGGEYDYWGQGTQVTVSS | low polyreactivity |
| QVQLVETGGGLVQAGGSLRLSCAASGRIFYYYAMGWYRQAPGKERELVAAITRGGGTYYADSVKGRFTISRDNAKNTVYLQMYSLKPEDTAVYYCAKRGPPESHHPYRYRFDYWGQGPQVTVSS | low polyreactivity |
| QVQLVESGGGFVQAGGSLRLSCAASGYTFDHNAMGWYRQAPGKERELVAAISLTGSSTYYADSVKGRFTISRDNANNNVYLQMNSLKPEDTAVYYCAAVYHQAFKYKFNYWGQGTQVTVSS | low polyreactivity |
| QVQLVESGGGLVQAGGSLRLSCAASGSTFQINAMGWYRQAHGKERALVAAIDGGGDTYYADSVKGRFTISRDNAKKTDYLQMNSLKPEDTAVYYCAAERRIYYQDFNYCGQGTQVTVSS | low polyreactivity |
| QVQLVESGGGLVQAGGSLRLSCAASGRTFRYYAMGWYRQAPGKEREFVAAITKRGGSTYYADSVKGRFTISRDNAKNTVYLQMNSLKAEDTAVYYCAADTSTWAHTRGYDYWGQGTQVTVSS | high polyreactivity |
| QVQLVESGGGLVQAGGSLRLSCAASGYSFVRNAMGWYIQAPGKERELVAAISGSGGSTYYADSVKGRFTISRDNAKNTVYLQMNSLKPEDTAVYYCAADYATVTWRGIAYDYWGQGTQVTVSS | low polyreactivity |
| QVQLVESGGGLVQAGGSLRLSCAASGRIFIYNAMGWYRQAPGKERELVAAISVSGGRTYYADSVKGRFTISRDNAKNTVYLQMNSLKPEDTAVYYCNKVRVGSLRGYWGQGTQVTVSS | high polyreactivity |
| QVQLVESGGGLVQAGGSLRLSCAASGFTFGRYAMGWYRQAPGKVRELVAGITSGGSTYYADSVKGRFTISRDNAKKTVYLQMNSLKPEDTAVYYGAKASAYGLANDYDYWGQGTQVTVSS | low polyreactivity |
| QVQLVESGGGLVQAGGSLRLSCAASGSIFTSYAMGWYRQAPGKERELVAAISRRGSRTYYADSVKGRFTISRDNANNTVYLQMNSLKPEETAVYDCAAKSGGQPGDSWGQGTQVTVSS | high polyreactivity |
| QVQLVESGGVLVQAGGSLRLSCAASGGTFGVYTMGWYRQSPGKERDLVAAISWSGGSTYYADSVKGRFRISRDNAKNTVYLQINSLKPEDTAVYYCAARLKYGRIGVDHWGQGTQVTVSS | high polyreactivity |
| QVQLVESGGGLVQAGGSLRLSCAASGSTFRLYAMGWYRQAPGKERELVAAISYSGGSTYYADSVKGRFTISRDNAKNTVYLQMNSLKPEDTAVYYCNAVRRHGGYYDYGYWGQGTQVTVSS | high polyreactivity |
| QVQLVESGGGLVQAGGSLRLSCAASGSIFSRYTMGWYRQEPGKERELVAAITSSGGRTYYADSVKGRFTISRDNAKNTVYLQMNSLKPEDTAVYYCAARIPKQQGYGYWGQGTQVTVSS | high polyreactivity |
| QVQLVESGGGLVQAGGSLRLSCAASGYIFDDNAMGWYRQAPGKERELVATNYADSVKGRFTISRDNAKNTVYLQMNSLKPEDTAVFYCAKAGYRSEFEYWGQGTQVTVSS | low polyreactivity |
| QVHLVESGGGLVQEGGSLRLSCPACGSTIRGNAMGWYRQAPGKERELVADITRNGGRTYYADSVKGRFTISRDNAKNNVYLQMNSLKPEDTAVYYCAKRDAYCVTQRNMDYWGQGTQVTVSS | high polyreactivity |
| QVQLVESGGGLVQAGGSLRLSCAASGSIFERNAMGWYRQAPGKERELVAAISDDDGSTYYADSVKGRFTISRDNAKNTVYLQMNSLKPEDTAVYYCNAYSHFGSFYPFDYWGQGTQVTVSS | low polyreactivity |
| QVQLVESGGGLVQAGGSLRLSCAASGSTLPVYAMGWYRQAPGKERELVATITDTGITNYADSVKGRFTLSRDNAKNTVYLQMNSLKPEDTAVYYCAVDSTGVWPYQVGYAPYDYWGQGTQVTVSS | low polyreactivity |
| QVQLVESGGGLVQAGGSLRLSCAASGITLFHYVMGWYRQAPGKERELVAVISSSGGSTYYADSVKVRFTISRDNAKNSVYLHMNSLKQVDTAVYYGAAKRYNYWGQGTQVTVSS | high polyreactivity |
| QVQLVESGGGLVQAGGSLRLSCAASGRIFYFYAMGWYRQAPGKERELVASISYSGGNTYYADSVKGRFTISRDNAKNTVYLQMNSLKPEDTAVYYCNVLPNTGARGYYYWGQGTQVNVSS | low polyreactivity |
| QVQLVESGGGLVQAGGSLRLSCDASGIIFNTYAMGWYRQAPGKERELVAAISSSGGRTYYADSVKGRFTISRDYAKNTVYLQMNSLKPEDTAVYFCAADYRGGIRYYRGAAYNYWGQGTQVTVSS | high polyreactivity |
| QVQLVESGGGLVQAGGSLRLSCAASGSTLRVNAKGWYRQAPGKERELVAAISYRGGSTYYADSVKGRFTISRDNAKNTVYLQMNSLKPEDTAVYYCAAKQGATRGYYYWGQGTQVTVSS | high polyreactivity |

| Sequence | polyreactivity (PSR sort gate) |
| --- | --- |
| QVQLVESGGGLVQAGGSLRLSCAASGSIFRYYAMGWYRQAPGKERELVAAISRRGSSTYYPDSVKGRFTISRDNAKNTVYLQMNSLKPEDTAVYYCATAYRGRAWGYDYWGQGTQVTVSS | high polyreactivity |
| QVQLVESGGGLVQAGGSLRLSCAASGFTFVSNAMGWYRQAPGKEREMVADITSDGSTNYADSVKGRFTISRDNAKNTVSLQMNSLKPEDTAVYYCNADASYGFWSLLHYDYWGQATQVTVSS | low polyreactivity |
| QVQLVESGGRLVQAGGSLRLSCAASGRTIGLNGMGWYRQAPGTERELVAGISWSGGSTNYADSVKGRFTISRDNAKNTVYLQMNSLKPEDTAVYYCAADFVYYVVNDFGWSYAYEYWGQGTQVTVSS | low polyreactivity |
| QVQLVESGGCLVQAGGSLRLSCAASGSTFPAYAMGWYRPAPGKERELVAAISRSGGSTYYADSVKGRFTISRDNAKNTVYLQMNSLKPEDTAVYYCAARAAYSYDDGYWGQGTQVTVSS | high polyreactivity |
| QVQLVESGRGLVQAGGSLRISCAASGFTFVRYVMGWYRQAPGTESELVAAISRSGGSTHYADSVKGRFTISRDNAKNTVYFQMTSLKPEDTAVYYCAAACPRWPGQGDYWGQGTQVTVSS | high polyreactivity |
| QVQLVESGGGLLQAGGSLRLSCAASGFIFHHYGMGWYRQAPGKERELVAGDTHYADSVKGRFTISRDNAKNTVYLQMNSLKPEDTGVYYCNAYWKDDFEDGPGRRGMDYWGQGTQVTVSS | low polyreactivity |
| QVQLVESGGGLVQAGGSLRLSCAASGLIFPGYAMGWYRQAPGKERELVAAIDWSGGSTYYADSVKGRFTISRDYAKNTVYLQMNSLKPEDTAVYDCNADGYLSYAFDYWGQGTQVTVSS | low polyreactivity |
| QVQLGESGGGLVQAGGSLRLSCAASGRIFTSYPMGWYRQAPGKERELVAAISRSGGSTYYADSVKGRFTISRDNAKNTVYLQMNSLKPEDTAVYYCAKARVVAGYDYWGQGTQVTVSS | high polyreactivity |
| QVQLVESGGGLVQAGGSLRLSCAASGRIFVGNAMVCYKQAPGKERELVAGITSRGGSTYYADSVKGRFTISRDNAKNTVYLQMNSLKQEDTAVYYCASYYRYPSWKFDYWGQGTQVTVSS | high polyreactivity |
| QVQLVESGGGLVQAGGSLRLSCAASGFTFNRNAMGWYIQAPGKERELVAAISWSGGSTYYADSVKGRFTISRDNAKNTVYLQMNSLKPEDTAVYYCAKGYRRVYGPFYYWGQGTQVTVSS | low polyreactivity |
| QVQHVESGGGLVQAGGSLRLSCAASGSTFFRYAKGWYRQAPGTERELVAAISYSGDSTYYADSVKGRFTISRDNAKNTVYLQMNSLKPEDSAVYYCNAVYFRYRYNYWGQGTQVTVSS | high polyreactivity |
| QVQLLESGGGLVQAGGSLRLSCAASGSTFDDYAMGWYRQAPGKEREFVAAIDWSGGSTYYADSVKGRFTISRDNAKYSVYLQMKSLKPEVTAVYYCNADPDVSFDYWGQGTQVTVSS | low polyreactivity |
| QVQLVESGGGLVQAGGSLRLSCAASGRTSSANVMGGYRQAPGKDRELVAAISWSGGSTYYADSVKGRFTISRDNAKNTVYLQMNSRKPEDTAVYYCAADYYKYYYGGDQLSITRYDYWGQGTQVTVSS | low polyreactivity |
| QVQLVESGGGLVQAGGSLRLSCAASGFTFRYYAMGWYRQAPGKEREFVAAIRWRGATTYYADSVKGRFTISRDNAKNTVLLQMNSLKPEDTAVYYCAARYVYNSDRVSERDYWGQGTQVTVSS | high polyreactivity |
| QVQLVESGGGLVQAGGSLRLSCAASGSTFYTNDMGWYRQAPGKERELVAAITSSGNTNYADSVKGRFTISRDNAKNTVFLQMNCLKPEDTAVYYYYYYQYDYWGQGTQVTVSS | low polyreactivity |
| QVQLVESGGGLVQAGGSLRLSCAASGSIFTSNAMGWYRQAPGKERELVAAISYISGGTYYADSVKGRFTISRDNAKNTVYLQMNSLKPEDTAVYYCAAEQKWGSGQYDQGSYWYYYWGQGTQVTVSS | low polyreactivity |
| QVQLVESGGGLVQAGGSLRLSCAASGFTFGVYAMGWYRQAPGKERELVAAISTTVGSTYYADSVKGRFTISRDNAKNTVYLQMNSLKPEDSAVYYCAAEYTGYINYYIYEYWGQGTQVTVSS | low polyreactivity |
| QVQLVESGGGIVQAGGSHRLSCAASGYIFKPNHMGWYRQAPGIDRELVAAISKSRGTTYYADSVKGRFTISRDNAKNTVYLQMNGLKPEDTAVYFCGGVRRYHSYPDGGYWGQGSQVTVSS | high polyreactivity |
| QVQLVESGGGLVQAGGSLRLSCAASGFIFTLYAMGWYRQAPGKEREFVAAISWSDGSTTYADSVKGRFTISRDNAKNSVYSQMYSLKPEDTAVYYCADVTCSYIRGLVYHFYYWGQGTQVTVSS | low polyreactivity |
| QVQLVESGGGLVQAGGSHRLSCAASGSNIRFYAMGWYRQAPGKEREFVAAITSSGGNTYYADSVKGRFTISRDNAKNSVYLHMNSLKPEDTAVYYCAARYYGYGFDYWGQGTQVTVSS | high polyreactivity |
| IIQAGGSLRLSCAASGRTFSGYAMGWYRQAPGKERELIADITSGGSTYYADSVKGRFTISRDNAKNTVYLQMNSLKPEDTAVYYCAAERQIRSFWSSRTYEFGYWGQGTQVTVSS | low polyreactivity |
